# Measurements as given in the supplement of paper PMC10567573.
# ± gives the standard deviation.
# Assay: protein stability index of a GFP-peptide fusion (GPS, HEK-293T) (PSI 1-6); higher = more stable
# [1] = treatment: DMSO, c terminus: a fixed tail appended
# [2] = treatment: MLN4924 1 uM, 8 h, c terminus: a fixed tail appended
# 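Also: 24-mer peptide tiles fused after GFP, lentivirally expressed, FACS-sorted into six equal bins by GFP/DsRed ratio, decoded by Illumina sequencing, PSI is the read-weighted mean bin number.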
Sequence,protein stability index [1],protein stability index [2],"protein stability index (treatment: DMSO, c terminus: native)","protein stability index (treatment: MLN4924 1 uM, 8 h, c terminus: native)"
KSRRKAALSSPRSRKNATQPPNAE [INTS3],5.08 ± 0.33,4.98 ± 0.39,–,–
KSYNICFELEDSNEIFTQLYRTLF [PDS5B],3.05 ± 0.83,2.87 ± 0.61,–,–
KTEDENKQSFLDGGKGHHLPSENL [TOR1AIP2],5.4 ± 0.21,5.27 ± 0.22,–,–
KTTQEAEKLLERQGQAKTPDSMFL [CDK11A],4.68 ± 0.28,4.73 ± 0.2,–,–
KVHMKDVMSALWVSGLDSSYLREQ [GAN],2.1 ± 0.47,2.23 ± 0.26,–,–
KVIYLDDDVIVQGDIQELYDTTLA [GLT8D2],2.65 ± 0.36,2.94 ± 0.29,–,–
KVRALEEANADLEVKIRDWHLKQS [KRT13],4.05 ± 0.2,4.22 ± 0.13,–,–
KYTPSNKHGFSWAVPKFMKRIKVP [DLC1],2.49 ± 0.36,2.6 ± 0.44,–,–
LADDHLIEVNGENVEDASHEEVVE [PDZK1],5.65 ± 0.1,5.54 ± 0.24,–,–
LAGTQLLYAFFTRTHGDMHSLVRS [TRIB3],3.13 ± 0.38,3.05 ± 0.35,–,–
LALRGRLQLEACGMRRKSLLTRKV [GOLPH3],2.26 ± 0.13,2.41 ± 0.21,–,–
LALYTPVGAAGSARQELLGDRPRW [ANKRD9],3.28 ± 0.27,2.96 ± 0.21,–,–
LANPVLESTPVGTVVGLFNVRDRD [PCDHGC5],4.08 ± 0.35,4.06 ± 0.34,–,–
LASPHTVAAVLEAVAQTAHLPADS [RSAD1],3.61 ± 0.33,3.83 ± 0.25,–,–
LDDGEIDEIRWKYHSDTTPKIIES [IQUB],4.25 ± 0.23,3.98 ± 0.24,–,–
LDISDSISESGGLNWKMTLCLLVA [SLC6A17],2.54 ± 0.48,2.5 ± 0.79,–,–
LDKVKDGGYRPAEDKIFPVPEEPP [ZBED1],5.11 ± 0.18,5 ± 0.16,–,–
LDMDDGTLSFIVDGQYMGVAFRGL [SPSB1],2.61 ± 0.67,2.32 ± 0.31,–,–
LDWISYQVEKNKYDASAIDFSRCD [ELF3],2.93 ± 0.23,3.01 ± 0.1,–,–
LEAAEVILEHAHRGEQTTSQVSWE [FCHSD1],3.63 ± 0.58,4.25 ± 0.79,–,–
LEIYQSSQDEPIALDKQHSRDSAA [NOL4L],4.89 ± 0.24,5.16 ± 0.12,–,–
LELGSYIKDLSVVHSDLSSIVILD [CTDNEP1],2.4 ± 0.13,2.48 ± 0.62,–,–

Sequence,protein stability index [1],protein stability index [2],"protein stability index (treatment: DMSO, c terminus: native)","protein stability index (treatment: MLN4924 1 uM, 8 h, c terminus: native)"
LELNFKAGDVIFLLSRINKDWLEG [NCF4],2.77 ± 0.7,3.09 ± 1.6,–,–
LEQCSASIEVGGSVNFDGETIEGA [FEM1C],5.4 ± 0.3,5.14 ± 0.57,–,–
LFMKKNHEEEVKGLQAQIASSGLT [KRT18],3.81 ± 0.15,3.98 ± 0.27,–,–
LFQFSNCSQGQQLATFSSDWEIQE [CCDC3],3.12 ± 0.45,2.94 ± 0.33,–,–
LFQLSCSSTQLNELLLFAVGFIMA [OR3A1],2.71 ± 0.45,2.98 ± 0.87,–,–
LFTIPLLYRQHQAQIDQYVGLVTN [RTN2],2.81 ± 0.57,2.95 ± 0.48,–,–
LFVIVPVLGPLVALIICYNWLHRR [MOG],3.38 ± 0.68,3.11 ± 0.58,–,–
LFYKPGIVLLLALAKYLKMNNFL [GULP1],–,–,2.87 ± 0.92,2.87 ± 0.91
LGAEESLGLLDDYLEVAKHFKPHG [ATF4],3.24 ± 0.33,3.56 ± 0.36,–,–
LGAVAGLALGPILRLYKHNSQALL [MFSD9],2.59 ± 1.1,2.43 ± 0.15,–,–
LGHPALSQEEGKSALEDQGSNPSS [PPFIA4],5.59 ± 0.21,5.25 ± 0.91,–,–
LGKTNAKAVSEMRQKIWNNMPKDH [DYNC2LI1],3.38 ± 0.23,3.62 ± 0.37,–,–
LGLSKLARIVEIYSRRLQVQERLT [GCH1],2.71 ± 0.65,2.2 ± 0.41,–,–
LHKIYLCQSGYFSSMFSGSWKESS [GMCL1],2.26 ± 0.82,2.18 ± 0.37,–,–
LHKQVLMGPYNPDTCPEVGFFDVL [ACBD3],2.4 ± 0.31,2.18 ± 0.21,–,–
LHYAAMHGRARIARLMLESEYRSD [ASB7],2.73 ± 0.19,2.77 ± 0.28,–,–
LIANRSYKVSAASSFFFSGVFVGV [SLC22A15],2.69 ± 0.8,2.49 ± 0.64,–,–
LIFSPCSDCEEEEEEEEEEGSGHS [WEE1],4.88 ± 0.19,5.03 ± 0.13,–,–
LIILWKNGERESGLRSLRLFQKLE [WDR41],2.15 ± 0.26,2.5 ± 0.49,–,–
LKAFNMFVRLFVDENLDRMVPISK [NOL4L],2.67 ± 0.61,2.41 ± 0.27,–,–
LKEAPVQDQGYKTLRLRENCVLSS [ZNF8],3.88 ± 0.12,3.84 ± 0.1,–,–
LKLQTKDGHRPEWTFYPRFSSNIH [SPATS1],2.4 ± 0.3,2.48 ± 0.32,–,–
